The source of these data is PMC6804253, “Predicting and Experimentally Validating Hot-Spot Residues at Protein–Protein Interfaces” (ACS Chemical Biology, 2019).

In assay [1] the test system is PPIs of the SKEMPI data set (by PDBID). As to conditions: single mutation to alanine, sheet sortedByGroup, r_group FAMILYVW; ref SKEMPI; cited from earlier work.
For assay [2] the test system is unchanged. Description: SKEMPI experimental ΔΔG, single mutations to alanine. It counts as binding. Conditions: class of the SKEMPI experimental ΔΔG.

B1: 1DAN IT22A (protein, UniProt P13726 33-251, looked up, variant I22A)
extracellular domain: SGTTNTVAAYNLTWKSTNFKTALEWEPKPVNQVYTVQISTKSGDWKSKCFYTTDTECDLTDEIVKDVKQTYLARVFSYPAGNVESTGSAGEPLYENSPEFTPYLETNLGQPTIQSFEQVGTKVNVTVEDERTLVRRNNTFLSLRDVFGKDLIYTLYYWKSSSSGKKTAKTNTNEFLIDVDKGENYCFSVQAVIPSRTVNRKSTDSPVECMGQEKGEFRE
modifications: extracellular domain
On to B1, for which the “sk_ddG_kJ (SKEMPI experimental ΔΔG)” value in assay [1] is given as 2.72 kJ. The sk_class entry in assay [2] was “Neutral (neutral (little effect) 4.184 kJ/mol < ΔΔG > −4.184 kJ/mol)”.

B2: 1DAN LT72A (protein, UniProt P13726 33-251, looked up, variant L72A)
extracellular domain: SGTTNTVAAYNLTWKSTNFKTILEWEPKPVNQVYTVQISTKSGDWKSKCFYTTDTECDLTDEIVKDVKQTYAARVFSYPAGNVESTGSAGEPLYENSPEFTPYLETNLGQPTIQSFEQVGTKVNVTVEDERTLVRRNNTFLSLRDVFGKDLIYTLYYWKSSSSGKKTAKTNTNEFLIDVDKGENYCFSVQAVIPSRTVNRKSTDSPVECMGQEKGEFRE
modifications: extracellular domain
Turning to B2, the “sk_ddG_kJ (SKEMPI experimental ΔΔG)” value in assay [1] is recorded as -0.25 kJ. The sk_class result in assay [2] is “Neutral (neutral (little effect) 4.184 kJ/mol < ΔΔG > −4.184 kJ/mol)”.

B3: 1DAN LU133A (protein, UniProt P13726 33-251, looked up, variant L133A)
extracellular domain: SGTTNTVAAYNLTWKSTNFKTILEWEPKPVNQVYTVQISTKSGDWKSKCFYTTDTECDLTDEIVKDVKQTYLARVFSYPAGNVESTGSAGEPLYENSPEFTPYLETNLGQPTIQSFEQVGTKVNVTVEDERTAVRRNNTFLSLRDVFGKDLIYTLYYWKSSSSGKKTAKTNTNEFLIDVDKGENYCFSVQAVIPSRTVNRKSTDSPVECMGQEKGEFRE
modifications: extracellular domain
Regarding B3, the “sk_ddG_kJ (SKEMPI experimental ΔΔG)” value in assay [1] is -0.08 kJ. Besides, the sk_class entry in assay [2] is given as “Neutral (neutral (little effect) 4.184 kJ/mol < ΔΔG > −4.184 kJ/mol)”.

B4: 1DAN VU146A (protein, UniProt P13726 33-251, looked up, variant V146A)
extracellular domain: SGTTNTVAAYNLTWKSTNFKTILEWEPKPVNQVYTVQISTKSGDWKSKCFYTTDTECDLTDEIVKDVKQTYLARVFSYPAGNVESTGSAGEPLYENSPEFTPYLETNLGQPTIQSFEQVGTKVNVTVEDERTLVRRNNTFLSLRDAFGKDLIYTLYYWKSSSSGKKTAKTNTNEFLIDVDKGENYCFSVQAVIPSRTVNRKSTDSPVECMGQEKGEFRE
modifications: extracellular domain
With B4, the “sk_ddG_kJ (SKEMPI experimental ΔΔG)” value in assay [1] is recorded as 0.84 kJ. Further, in assay [2], the sk_class result is recorded as “Neutral (neutral (little effect) 4.184 kJ/mol < ΔΔG > −4.184 kJ/mol)”.

B5: 1DAN WT45A (protein, UniProt P13726 33-251, looked up, variant W45A)
extracellular domain: SGTTNTVAAYNLTWKSTNFKTILEWEPKPVNQVYTVQISTKSGDAKSKCFYTTDTECDLTDEIVKDVKQTYLARVFSYPAGNVESTGSAGEPLYENSPEFTPYLETNLGQPTIQSFEQVGTKVNVTVEDERTLVRRNNTFLSLRDVFGKDLIYTLYYWKSSSSGKKTAKTNTNEFLIDVDKGENYCFSVQAVIPSRTVNRKSTDSPVECMGQEKGEFRE
modifications: extracellular domain
B5: the “sk_ddG_kJ (SKEMPI experimental ΔΔG)” value in assay [1] is 6.53 kJ. Besides, the sk_class result in assay [2] is on record as “Positive (positive (a hot residue) ΔΔG ≥ 4.184 kJ/mol)”.

B6: 1DAN YT78A (protein, UniProt P13726 33-251, looked up, variant Y78A)
extracellular domain: SGTTNTVAAYNLTWKSTNFKTILEWEPKPVNQVYTVQISTKSGDWKSKCFYTTDTECDLTDEIVKDVKQTYLARVFSAPAGNVESTGSAGEPLYENSPEFTPYLETNLGQPTIQSFEQVGTKVNVTVEDERTLVRRNNTFLSLRDVFGKDLIYTLYYWKSSSSGKKTAKTNTNEFLIDVDKGENYCFSVQAVIPSRTVNRKSTDSPVECMGQEKGEFRE
modifications: extracellular domain
As to B6, the “sk_ddG_kJ (SKEMPI experimental ΔΔG)” value in assay [1] was 2.72 kJ. Also, the sk_class entry in assay [2] is on record as “Neutral (neutral (little effect) 4.184 kJ/mol < ΔΔG > −4.184 kJ/mol)”.

B7: 1DAN FU140A (protein, UniProt P13726 33-251, looked up, variant F140A)
extracellular domain: SGTTNTVAAYNLTWKSTNFKTILEWEPKPVNQVYTVQISTKSGDWKSKCFYTTDTECDLTDEIVKDVKQTYLARVFSYPAGNVESTGSAGEPLYENSPEFTPYLETNLGQPTIQSFEQVGTKVNVTVEDERTLVRRNNTALSLRDVFGKDLIYTLYYWKSSSSGKKTAKTNTNEFLIDVDKGENYCFSVQAVIPSRTVNRKSTDSPVECMGQEKGEFRE
modifications: extracellular domain
Take B7: the “sk_ddG_kJ (SKEMPI experimental ΔΔG)” value in assay [1] was 5.40 kJ. Besides, in assay [2], the sk_class entry is “Positive (positive (a hot residue) ΔΔG ≥ 4.184 kJ/mol)”.

B8: 1DAN FT76A (protein, UniProt P13726 33-251, looked up, variant F76A)
extracellular domain: SGTTNTVAAYNLTWKSTNFKTILEWEPKPVNQVYTVQISTKSGDWKSKCFYTTDTECDLTDEIVKDVKQTYLARVASYPAGNVESTGSAGEPLYENSPEFTPYLETNLGQPTIQSFEQVGTKVNVTVEDERTLVRRNNTFLSLRDVFGKDLIYTLYYWKSSSSGKKTAKTNTNEFLIDVDKGENYCFSVQAVIPSRTVNRKSTDSPVECMGQEKGEFRE
modifications: extracellular domain
B8: the “sk_ddG_kJ (SKEMPI experimental ΔΔG)” value in assay [1] was 4.81 kJ. Moreover, the sk_class result in assay [2] was “Positive (positive (a hot residue) ΔΔG ≥ 4.184 kJ/mol)”.

B9: 1DAN FT50A (protein, UniProt P13726 33-251, looked up, variant F50A)
extracellular domain: SGTTNTVAAYNLTWKSTNFKTILEWEPKPVNQVYTVQISTKSGDWKSKCAYTTDTECDLTDEIVKDVKQTYLARVFSYPAGNVESTGSAGEPLYENSPEFTPYLETNLGQPTIQSFEQVGTKVNVTVEDERTLVRRNNTFLSLRDVFGKDLIYTLYYWKSSSSGKKTAKTNTNEFLIDVDKGENYCFSVQAVIPSRTVNRKSTDSPVECMGQEKGEFRE
modifications: extracellular domain
For B9, the “sk_ddG_kJ (SKEMPI experimental ΔΔG)” value in assay [1] was 1.84 kJ. For the same molecule, the sk_class result in assay [2] is “Neutral (neutral (little effect) 4.184 kJ/mol < ΔΔG > −4.184 kJ/mol)”.

B10: 1DAN VT36A (protein, UniProt P13726 33-251, looked up, variant V36A)
extracellular domain: SGTTNTVAAYNLTWKSTNFKTILEWEPKPVNQVYTAQISTKSGDWKSKCFYTTDTECDLTDEIVKDVKQTYLARVFSYPAGNVESTGSAGEPLYENSPEFTPYLETNLGQPTIQSFEQVGTKVNVTVEDERTLVRRNNTFLSLRDVFGKDLIYTLYYWKSSSSGKKTAKTNTNEFLIDVDKGENYCFSVQAVIPSRTVNRKSTDSPVECMGQEKGEFRE
modifications: extracellular domain
As for B10, the “sk_ddG_kJ (SKEMPI experimental ΔΔG)” value in assay [1] is -0.54 kJ. In addition, the sk_class entry in assay [2] is given as “Neutral (neutral (little effect) 4.184 kJ/mol < ΔΔG > −4.184 kJ/mol)”.

B11: 1DAN YT51A (protein, UniProt P13726 33-251, looked up, variant Y51A)
extracellular domain: SGTTNTVAAYNLTWKSTNFKTILEWEPKPVNQVYTVQISTKSGDWKSKCFATTDTECDLTDEIVKDVKQTYLARVFSYPAGNVESTGSAGEPLYENSPEFTPYLETNLGQPTIQSFEQVGTKVNVTVEDERTLVRRNNTFLSLRDVFGKDLIYTLYYWKSSSSGKKTAKTNTNEFLIDVDKGENYCFSVQAVIPSRTVNRKSTDSPVECMGQEKGEFRE
modifications: extracellular domain
For the molecule B11, the “sk_ddG_kJ (SKEMPI experimental ΔΔG)” value in assay [1] is listed as -0.54 kJ. Moreover, the sk_class entry in assay [2] is “Neutral (neutral (little effect) 4.184 kJ/mol < ΔΔG > −4.184 kJ/mol)”.

B12: 1DAN YU94A (protein, UniProt P13726 33-251, looked up, variant Y94A)
extracellular domain: SGTTNTVAAYNLTWKSTNFKTILEWEPKPVNQVYTVQISTKSGDWKSKCFYTTDTECDLTDEIVKDVKQTYLARVFSYPAGNVESTGSAGEPLAENSPEFTPYLETNLGQPTIQSFEQVGTKVNVTVEDERTLVRRNNTFLSLRDVFGKDLIYTLYYWKSSSSGKKTAKTNTNEFLIDVDKGENYCFSVQAVIPSRTVNRKSTDSPVECMGQEKGEFRE
modifications: extracellular domain
For B12, the “sk_ddG_kJ (SKEMPI experimental ΔΔG)” value in assay [1] is given as 4.31 kJ. For the same molecule, the sk_class entry in assay [2] is recorded as “Positive (positive (a hot residue) ΔΔG ≥ 4.184 kJ/mol)”.

B13: 1DAN VT33A (protein, UniProt P13726 33-251, looked up, variant V33A)
extracellular domain: SGTTNTVAAYNLTWKSTNFKTILEWEPKPVNQAYTVQISTKSGDWKSKCFYTTDTECDLTDEIVKDVKQTYLARVFSYPAGNVESTGSAGEPLYENSPEFTPYLETNLGQPTIQSFEQVGTKVNVTVEDERTLVRRNNTFLSLRDVFGKDLIYTLYYWKSSSSGKKTAKTNTNEFLIDVDKGENYCFSVQAVIPSRTVNRKSTDSPVECMGQEKGEFRE
modifications: extracellular domain
For the molecule B13, in assay [1], the “sk_ddG_kJ (SKEMPI experimental ΔΔG)” value was -0.79 kJ. The sk_class result in assay [2] is “Neutral (neutral (little effect) 4.184 kJ/mol < ΔΔG > −4.184 kJ/mol)”.

B14: 1DAN IU152A (protein, UniProt P13726 33-251, looked up, variant I152A)
extracellular domain: SGTTNTVAAYNLTWKSTNFKTILEWEPKPVNQVYTVQISTKSGDWKSKCFYTTDTECDLTDEIVKDVKQTYLARVFSYPAGNVESTGSAGEPLYENSPEFTPYLETNLGQPTIQSFEQVGTKVNVTVEDERTLVRRNNTFLSLRDVFGKDLAYTLYYWKSSSSGKKTAKTNTNEFLIDVDKGENYCFSVQAVIPSRTVNRKSTDSPVECMGQEKGEFRE
modifications: extracellular domain
Turning to B14, in assay [1], the “sk_ddG_kJ (SKEMPI experimental ΔΔG)” value is recorded as 0.75 kJ. In assay [2], the sk_class entry is “Neutral (neutral (little effect) 4.184 kJ/mol < ΔΔG > −4.184 kJ/mol)”.

B15: 1DAN VT64A (protein, UniProt P13726 33-251, looked up, variant V64A)
extracellular domain: SGTTNTVAAYNLTWKSTNFKTILEWEPKPVNQVYTVQISTKSGDWKSKCFYTTDTECDLTDEIAKDVKQTYLARVFSYPAGNVESTGSAGEPLYENSPEFTPYLETNLGQPTIQSFEQVGTKVNVTVEDERTLVRRNNTFLSLRDVFGKDLIYTLYYWKSSSSGKKTAKTNTNEFLIDVDKGENYCFSVQAVIPSRTVNRKSTDSPVECMGQEKGEFRE
modifications: extracellular domain
B15: the “sk_ddG_kJ (SKEMPI experimental ΔΔG)” value in assay [1] was 0.00 kJ. The sk_class entry in assay [2] was “Neutral (neutral (little effect) 4.184 kJ/mol < ΔΔG > −4.184 kJ/mol)”.

B16: 1DAN LT59A (protein, UniProt P13726 33-295, looked up, variant L59A)
Tissue factor: SGTTNTVAAYNLTWKSTNFKTILEWEPKPVNQVYTVQISTKSGDWKSKCFYTTDTECDATDEIVKDVKQTYLARVFSYPAGNVESTGSAGEPLYENSPEFTPYLETNLGQPTIQSFEQVGTKVNVTVEDERTLVRRNNTFLSLRDVFGKDLIYTLYYWKSSSSGKKTAKTNTNEFLIDVDKGENYCFSVQAVIPSRTVNRKSTDSPVECMGQEKGEFREIFYIIGAVVFVVIILVIILAISLHKCRKAGVGQSWKENSPLNVS
As for B16, the “sk_ddG_kJ (SKEMPI experimental ΔΔG)” value in assay [1] is given as 0.00 kJ. Moreover, the sk_class entry in assay [2] is “Neutral (neutral (little effect) 4.184 kJ/mol < ΔΔG > −4.184 kJ/mol)”.
